Experiments:
[1] = target: T1, cynomolgus FolR1 ECD-AcTev-Fcknob-Avi tag + Fc hole, biotinylated monomeric Fc fusion (cynomolgus, UniProt P0DOX5 223-449 = IgG part); assay: SPR ProteOn, Fab analyte;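 also: recombinant antigens immobilized, purified Fab two-fold dilutions injected in parallel channels, 200 s association and 600 s dissociation, buffer-only channel as in-line reference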
T1 construct: also called cyFolR1; cyno FolR1-Fc
Protocol: (§1) Immobilization of antigens (ligand): Recombinant antigens were diluted with PBST (10 mM phosphate, 150 mM sodium chloride pH 7.4, 0.005% Tween 20) to 10 μg/ml, then injected at 30 μl/minute in vertical orientation.
(§2) Injection of analytes: For ‘one-shot kinetics’ measurements, injection direction was changed to horizontal orientation, two-fold dilution series of purified Fab (varying concentration ranges) were injected simultaneously along separate channels 1-5, with association times of 200 s, and dissociation times of 600 s. Buffer (PBST) was injected along the sixth channel to provide an “in-line” blank for referencing. Association rate constants (kₒₙ) and dissociation rate constants (koff) were calculated using a simple one-to-one Langmuir binding model in ProteOn Manager v3.1 software by simultaneously fitting the association and dissociation sensorgrams. The equilibrium dissociation constant (KD) was calculated as the ratio koff/kₒₙ.

[2] = target: T2, human FolR3 ECD-AcTev-Fcknob-Avi tag + Fc hole, biotinylated monomeric Fc fusion (human, UniProt P0DOX5 223-449 = IgG part); assay: SPR ProteOn, Fab analyte;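 also: recombinant antigens immobilized, purified Fab two-fold dilutions injected in parallel channels, 200 s association and 600 s dissociation, buffer-only channel as in-line reference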
T2 construct: also called huFolR3; FolR3-Fc
Protocol: as §1, §2

[3] = target: T3, human FolR2 ECD-AcTev-Fcknob-Avi tag + Fc hole, biotinylated monomeric Fc fusion (human, UniProt P0DOX5 223-449 = IgG part); assay: SPR ProteOn, Fab analyte;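 also: recombinant antigens immobilized, purified Fab two-fold dilutions injected in parallel channels, 200 s association and 600 s dissociation, buffer-only channel as in-line reference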
T3 construct: also called huFolR2; FolR2-Fc
Protocol: as §1, §2

[4] = target: T2, human FolR3 ECD-AcTev-Fcknob-Avi tag + …; assay: SPR, IgG single injection
[5] = target: T3, human FolR2 ECD-AcTev-Fcknob-Avi tag + …; assay: SPR, IgG single injection
[6] = target: T4, human FolR1 ECD-AcTev-Fcknob-Avi tag + Fc hole, biotinylated monomeric Fc fusion (human, UniProt P0DOX5 223-449 = IgG part); assay: SPR ProteOn, Fab analyte;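 also: recombinant antigens immobilized, purified Fab two-fold dilutions injected in parallel channels, 200 s association and 600 s dissociation, buffer-only channel as in-line reference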
T4 construct: also called huFolR1; huFolR1-Fc
Protocol: as §1, §2

Binder | Kd [1] | binding result [4] | binding result [5] | further results
15H7 Fab (Fab, V domains shown) VH: QVQLVQSGAEVKKPGASVKVSCKASGYTFTSYYMHWVRQAPGQGLEWMGIINPSGGSTSYAQKFQGRVTMTRDTSTSTVYMELSSLRSEDTAVYYCARNYYLFSTSFDYWGQGTLVTVSS VL: QAVVTQEPSLTVSPGGTVTLTCGSSTGAVTTSNYANWVQEKPGQAFRGLIGGTNKRAPGTPARFSGSLLGGKAALTLSGAQPEDEAEYYCALWYSNLWVFGGGTKLTVL | 0.0725 µM | – | – | binding result [2]: no binding; binding result [3]: no binding
18D3 IgG (antibody, V domains shown, human IgG1) VH: QVQLVQSGAEVKKPGASVKVSCKASGYTFTSYYMHWVRQAPGQGLEWMGIINPSGGSTSYAQKFQGRVTMTRDTSTSTVYMELSSLRSEDTAVYYCARNYYTGGSSAFDYWGQGTLVTVS VL: QAVVTQEPSLTVSPGGTVTLTCGSSTGAVTTSNYANWVQEKPGQAFRGLIGGTNKRAPGTPARFSGSLLGGKAALTLSGAQPEDEAEYYCALWYSNLWVFGGGTKLTVL | – | no binding (tested: 500 nM) | no binding (tested: 500 nM) | –
15H7 IgG (antibody, V domains shown, human IgG1) VH: QVQLVQSGAEVKKPGASVKVSCKASGYTFTSYYMHWVRQAPGQGLEWMGIINPSGGSTSYAQKFQGRVTMTRDTSTSTVYMELSSLRSEDTAVYYCARNYYLFSTSFDYWGQGTLVTVSS VL: QAVVTQEPSLTVSPGGTVTLTCGSSTGAVTTSNYANWVQEKPGQAFRGLIGGTNKRAPGTPARFSGSLLGGKAALTLSGAQPEDEAEYYCALWYSNLWVFGGGTKLTVL | – | no binding (tested: 500 nM) | no binding (tested: 500 nM) | –
21D1 IgG (antibody, V domains shown, human IgG1) VH: QVQLVQSGAEVKKPGASVKVSCKASGYTFTSYYMHWVRQAPGQGLEWMGIINPSGGSTSYAQKFQGRVTMTRDTSTSTVYMELSSLRSEDTAVYYCARNYYVGVSPFDYWGQGTLVTVSS VL: QAVVTQEPSLTVSPGGTVTLTCGSSTGAVTTSNYANWVQEKPGQAFRGLIGGTNKRAPGTPARFSGSLLGGKAALTLSGAQPEDEAEYYCALWYSNLWVFGGGTKLTVL | – | no binding (tested: 500 nM) | no binding (tested: 500 nM) | –
16A3 IgG (antibody, V domains shown, human IgG1) VH: QVQLVQSGAEVKKPGASVKVSCKASGYTFTSYYMHWVRQAPGQGLEWMGIINPSGGSTSYAQKFQGRVTMTRDTSTSTVYMELSSLRSEDTAVYYCARNYYAGVTPFDYWGQGTLVTVSS VL: QAVVTQEPSLTVSPGGTVTLTCGSSTGAVTTSNYANWVQEKPGQAFRGLIGGTNKRAPGTPARFSGSLLGGKAALTLSGAQPEDEAEYYCALWYSNLWVFGGGTKLTVL | – | no binding (tested: 500 nM) | no binding (tested: 500 nM) | –
19E5 Fab (Fab, V domains shown) VH: QVQLVQSGAEVKKPGASVKVSCKASGYTFTSYYMHWVRQAPGQGLEWMGIINPSGGSTSYAQKFQGRVTMTRDTSTSTVYMELSSLRSEDTAVYYCARGEWRRYTSFDYWGQGTLVTVSS VL: QAVVTQEPSLTVSPGGTVTLTCGSSTGAVTTSNYANWVQEKPGQAFRGLIGGTNKRAPGTPARFSGSLLGGKAALTLSGAQPEDEAEYYCALWYSNLWVFGGGTKLTVL | 0.276 µM | – | – | –
19A4 Fab (Fab, V domains shown) VH: QVQLVQSGAEVKKPGASVKVSCKASGYTFTSYYMHWVRQAPGQGLEWMGIINPSGGSTSYAQKFQGRVTMTRDTSTSTVYMELSSLRSEDTAVYYCARGGWIRWEHFDYWGQGTLVTVSS VL: QAVVTQEPSLTVSPGGTVTLTCGSSTGAVTTSNYANWVQEKPGQAFRGLIGGTNKRAPGTPARFSGSLLGGKAALTLSGAQPEDEAEYYCALWYSNLWVFGGGTKLTVL | 4.25 µM | – | – | Kd [6]: 2.05 µM

From patent US20210087291A1 (Hoffmann-La Roche, published 2021)
